Measured values from publication PMC9482650, “Quantitative fragmentomics allow affinity mapping of interactomes” (Nature Communications, 2022).

Columns and labels:
Assay in all cases: holdup assay
Parameters in all cases: key: below the threshold = too weak to quantify, mostly under pKd 3.1 to 4
Conditions in all cases: plain residues with an end cap or a label only (N-terminal biotin on a linker: ado-ado)
NHERF4_2, Q86UT5 = molecular target: NHERF4_2, Q86UT5
FRMPD2_1, Q68DX3 = molecular target: FRMPD2_1, Q68DX3
Sequence of FRMPD2_1, Q68DX3 (Q68DX3 770-861): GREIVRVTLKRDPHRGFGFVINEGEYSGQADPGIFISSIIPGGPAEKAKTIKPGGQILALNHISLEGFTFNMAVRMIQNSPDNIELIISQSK

PCLO, Q9Y6V0 = molecular target: T1, PCLO, Q9Y6V0
T1 sequence (Q9Y6V0 4491-4600, limits assumed, looked up): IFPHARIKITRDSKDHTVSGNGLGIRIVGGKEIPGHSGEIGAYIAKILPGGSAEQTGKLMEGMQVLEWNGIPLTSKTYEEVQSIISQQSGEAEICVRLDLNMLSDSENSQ

MAGI1_1, Q96QZ7 = molecular target: MAGI1_1, Q96QZ7
Sequence of MAGI1_1, Q96QZ7 (Q96QZ7 1-106): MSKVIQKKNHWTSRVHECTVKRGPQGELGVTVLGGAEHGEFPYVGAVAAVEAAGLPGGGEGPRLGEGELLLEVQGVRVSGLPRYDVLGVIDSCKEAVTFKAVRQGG

MPP6, Q9NZW5 = molecular target: T2, MPP6, Q9NZW5
T2 sequence (Q9NZW5 125-219, limits assumed, looked up): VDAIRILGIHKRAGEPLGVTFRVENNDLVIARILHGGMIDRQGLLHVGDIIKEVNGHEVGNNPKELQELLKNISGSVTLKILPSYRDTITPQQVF

LIN7A, O14910 = molecular target: T3, LIN7A, O14910
T3 sequence (O14910 103-200, limits assumed, looked up): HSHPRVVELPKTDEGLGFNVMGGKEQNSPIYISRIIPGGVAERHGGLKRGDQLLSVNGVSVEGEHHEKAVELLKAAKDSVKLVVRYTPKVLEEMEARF

Inadl_4, Q8NI35 = molecular target: Inadl_4, Q8NI35
Sequence of Inadl_4, Q8NI35 (Q8NI35 547-651): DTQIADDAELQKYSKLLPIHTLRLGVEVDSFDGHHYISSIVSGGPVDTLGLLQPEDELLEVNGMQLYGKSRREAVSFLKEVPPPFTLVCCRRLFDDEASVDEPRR

SCRIB_2, Q14160 = molecular target: SCRIB_2, Q14160
Sequence of SCRIB_2, Q14160 (Q14160 857-960): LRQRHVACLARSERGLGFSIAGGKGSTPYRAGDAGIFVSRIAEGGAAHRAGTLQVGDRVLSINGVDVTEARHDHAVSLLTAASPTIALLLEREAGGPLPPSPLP

DLG4_2, P78352 = molecular target: DLG4_2, P78352
Sequence of DLG4_2, P78352 (P78352 155-259): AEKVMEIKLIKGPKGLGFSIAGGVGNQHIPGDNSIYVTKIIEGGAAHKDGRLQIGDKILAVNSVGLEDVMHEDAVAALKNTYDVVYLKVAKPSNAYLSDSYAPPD

GIPC2, Q8TF65 = molecular target: GIPC2, Q8TF65
Sequence of GIPC2, Q8TF65 (Q8TF65 112-203): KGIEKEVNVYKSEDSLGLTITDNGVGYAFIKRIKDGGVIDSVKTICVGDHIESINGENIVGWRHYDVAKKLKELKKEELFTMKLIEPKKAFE

MAGI1_2, Q96QZ7 = molecular target: MAGI1_2, Q96QZ7
Sequence of MAGI1_2, Q96QZ7 (Q96QZ7 456-580): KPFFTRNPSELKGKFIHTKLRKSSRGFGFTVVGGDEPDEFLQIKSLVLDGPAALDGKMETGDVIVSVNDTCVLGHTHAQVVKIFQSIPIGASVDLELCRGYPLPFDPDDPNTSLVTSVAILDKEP

GRIP2_6, Q9C0E4 = molecular target: GRIP2_6, Q9C0E4
Sequence of GRIP2_6, Q9C0E4 (Q9C0E4 648-740): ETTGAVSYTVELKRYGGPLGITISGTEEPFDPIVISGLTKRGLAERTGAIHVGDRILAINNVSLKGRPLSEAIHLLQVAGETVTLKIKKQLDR

GRIP1_7, Q9Y3R0 = molecular target: T4, GRIP1_7, Q9Y3R0
T4 sequence (Q9Y3R0 999-1096, limits assumed, looked up): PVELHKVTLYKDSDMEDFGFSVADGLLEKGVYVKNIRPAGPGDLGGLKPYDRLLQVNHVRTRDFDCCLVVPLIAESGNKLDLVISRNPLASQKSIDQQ

GRIP2_3, Q9C0E4 = molecular target: GRIP2_3, Q9C0E4
Sequence of GRIP2_3, Q9C0E4 (Q9C0E4 238-339): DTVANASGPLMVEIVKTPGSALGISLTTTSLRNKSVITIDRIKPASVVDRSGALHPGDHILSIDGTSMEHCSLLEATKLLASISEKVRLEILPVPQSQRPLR

MAGI2_3, Q86UL8 = molecular target: MAGI2_3, Q86UL8
Sequence of MAGI2_3, Q86UL8 (Q86UL8 600-682): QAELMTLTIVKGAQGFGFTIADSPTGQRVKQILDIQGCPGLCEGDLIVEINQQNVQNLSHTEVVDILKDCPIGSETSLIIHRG

GRASP, Q7Z6J2 = molecular target: GRASP, Q7Z6J2
Sequence of GRASP, Q7Z6J2 (Q7Z6J2 96-193): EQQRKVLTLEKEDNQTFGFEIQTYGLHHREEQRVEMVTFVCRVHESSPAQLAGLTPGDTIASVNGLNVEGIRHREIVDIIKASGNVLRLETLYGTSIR

GRID2IP_1, A4D2P6 = molecular target: GRID2IP_1, A4D2P6
Sequence of GRID2IP_1, A4D2P6 (A4D2P6 1-87): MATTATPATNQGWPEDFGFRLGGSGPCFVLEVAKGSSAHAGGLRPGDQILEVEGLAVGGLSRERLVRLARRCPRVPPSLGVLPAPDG

MAST2, Q6P0Q8 = molecular target: MAST2, Q6P0Q8
Sequence of MAST2, Q6P0Q8 (Q6P0Q8 1099-1202): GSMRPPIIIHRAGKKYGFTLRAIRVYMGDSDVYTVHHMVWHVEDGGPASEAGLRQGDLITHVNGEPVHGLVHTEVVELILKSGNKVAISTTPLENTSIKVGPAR

MAGI2_5, Q86UL8 = molecular target: MAGI2_5, Q86UL8
Sequence of MAGI2_5, Q86UL8 (Q86UL8 915-1017): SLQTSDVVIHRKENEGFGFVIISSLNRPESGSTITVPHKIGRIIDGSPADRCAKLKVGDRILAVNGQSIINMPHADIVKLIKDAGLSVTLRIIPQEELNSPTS

MPP7, Q5T2T1 = molecular target: T5, MPP7, Q5T2T1
T5 sequence (Q5T2T1 134-230, limits assumed, looked up): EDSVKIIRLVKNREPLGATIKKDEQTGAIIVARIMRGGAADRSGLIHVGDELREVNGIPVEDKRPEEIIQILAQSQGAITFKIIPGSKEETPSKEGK

HTRA1, Q92743 = molecular target: HTRA1, Q92743
Sequence of HTRA1, Q92743 (Q92743 360-477): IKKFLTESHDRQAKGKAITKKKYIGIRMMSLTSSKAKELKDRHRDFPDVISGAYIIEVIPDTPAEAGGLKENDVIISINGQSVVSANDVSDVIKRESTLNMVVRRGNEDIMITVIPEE

PDZRN3_1, Q9UPQ7 = molecular target: T6, PDZRN3_1, Q9UPQ7
T6 sequence (Q9UPQ7 244-349, limits assumed, looked up): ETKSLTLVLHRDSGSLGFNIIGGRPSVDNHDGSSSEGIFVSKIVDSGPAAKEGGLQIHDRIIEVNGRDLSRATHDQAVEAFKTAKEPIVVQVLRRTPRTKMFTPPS

AHNAK1, Q09666 = molecular target: AHNAK1, Q09666
Sequence of AHNAK1, Q09666 (Q09666 4-100): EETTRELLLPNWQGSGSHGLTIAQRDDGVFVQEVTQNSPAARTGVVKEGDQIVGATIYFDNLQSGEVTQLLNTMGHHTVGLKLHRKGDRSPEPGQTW

ARHGEF11, O15085 = molecular target: T7, ARHGEF11, O15085
T7 sequence (O15085 42-136, limits assumed, looked up): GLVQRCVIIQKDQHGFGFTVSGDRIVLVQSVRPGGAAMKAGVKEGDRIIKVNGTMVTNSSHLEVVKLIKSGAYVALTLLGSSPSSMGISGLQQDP

PTPN13_1, Q12923 = molecular target: T8, PTPN13_1, Q12923
T8 sequence (Q12923 1088-1188, limits assumed, looked up): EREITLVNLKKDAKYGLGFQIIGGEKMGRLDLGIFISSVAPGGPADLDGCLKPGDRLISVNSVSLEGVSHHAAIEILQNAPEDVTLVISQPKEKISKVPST

GRIP1_5, Q9Y3R0 = molecular target: T9, GRIP1_5, Q9Y3R0
T9 sequence (Q9Y3R0 568-668, limits assumed, looked up): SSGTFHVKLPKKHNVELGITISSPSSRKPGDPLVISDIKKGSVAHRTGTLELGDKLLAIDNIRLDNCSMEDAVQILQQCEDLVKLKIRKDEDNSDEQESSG

SYNJ2BP, P57105 = molecular target: T10, SYNJ2BP, P57105
T10 sequence (P57105 8-110, limits assumed, looked up): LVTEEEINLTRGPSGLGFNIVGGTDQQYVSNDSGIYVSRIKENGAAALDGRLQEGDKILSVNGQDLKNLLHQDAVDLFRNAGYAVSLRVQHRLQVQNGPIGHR

Sequence of NHERF4_2, Q86UT5 (Q86UT5 220-308): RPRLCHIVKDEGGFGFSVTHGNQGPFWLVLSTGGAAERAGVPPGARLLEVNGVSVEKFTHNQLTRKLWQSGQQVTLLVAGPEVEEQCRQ

KAEEKPPSKV [SCN4B, Q8IWT1]
pKd (NHERF4_2, Q86UT5): 3.49
pKd (FRMPD2_1, Q68DX3): below the threshold
pKd (PCLO, Q9Y6V0): below the threshold
pKd (MAGI1_1, Q96QZ7): below the threshold
pKd (MPP6, Q9NZW5): below the threshold
pKd (LIN7A, O14910): below the threshold
pKd (Inadl_4, Q8NI35): below the threshold
pKd (SCRIB_2, Q14160): below the threshold
pKd (DLG4_2, P78352): below the threshold
pKd (GIPC2, Q8TF65): below the threshold
pKd (MAGI1_2, Q96QZ7): below the threshold
pKd (GRIP2_6, Q9C0E4): below the threshold
pKd (GRIP1_7, Q9Y3R0): below the threshold
pKd (GRIP2_3, Q9C0E4): below the threshold
pKd (MAGI2_3, Q86UL8): 3.48
pKd (GRASP, Q7Z6J2): below the threshold
pKd (GRID2IP_1, A4D2P6): below the threshold
pKd (MAST2, Q6P0Q8): below the threshold
pKd (MAGI2_5, Q86UL8): 3.51
pKd (MPP7, Q5T2T1): below the threshold
pKd (HTRA1, Q92743): below the threshold
pKd (PDZRN3_1, Q9UPQ7): below the threshold
pKd (AHNAK1, Q09666): below the threshold
pKd (ARHGEF11, O15085): below the threshold
pKd (PTPN13_1, Q12923): below the threshold
pKd (GRIP1_5, Q9Y3R0): below the threshold
pKd (SYNJ2BP, P57105): below the threshold

HDDYFYHDEL [RCN2, Q14257]
pKd (NHERF4_2, Q86UT5): below the threshold
pKd (FRMPD2_1, Q68DX3): below the threshold
pKd (PCLO, Q9Y6V0): below the threshold
pKd (MAGI1_1, Q96QZ7): below the threshold
pKd (MPP6, Q9NZW5): 3.74
pKd (LIN7A, O14910): below the threshold
pKd (Inadl_4, Q8NI35): below the threshold
pKd (SCRIB_2, Q14160): below the threshold
pKd (DLG4_2, P78352): below the threshold
pKd (GIPC2, Q8TF65): below the threshold
pKd (MAGI1_2, Q96QZ7): below the threshold
pKd (GRIP2_6, Q9C0E4): below the threshold
pKd (GRIP1_7, Q9Y3R0): below the threshold
pKd (GRIP2_3, Q9C0E4): below the threshold
pKd (MAGI2_3, Q86UL8): below the threshold
pKd (GRASP, Q7Z6J2): 5.01
pKd (GRID2IP_1, A4D2P6): below the threshold
pKd (MAST2, Q6P0Q8): 4.85
pKd (MAGI2_5, Q86UL8): below the threshold
pKd (MPP7, Q5T2T1): below the threshold
pKd (HTRA1, Q92743): 3.98
pKd (PDZRN3_1, Q9UPQ7): below the threshold
pKd (AHNAK1, Q09666): below the threshold
pKd (ARHGEF11, O15085): 4
pKd (PTPN13_1, Q12923): below the threshold
pKd (GRIP1_5, Q9Y3R0): below the threshold
pKd (SYNJ2BP, P57105): below the threshold

THREVKFTSL [CD46, P15529]
pKd (NHERF4_2, Q86UT5): below the threshold
pKd (FRMPD2_1, Q68DX3): below the threshold
pKd (PCLO, Q9Y6V0): below the threshold
pKd (MAGI1_1, Q96QZ7): below the threshold
pKd (MPP6, Q9NZW5): below the threshold
pKd (LIN7A, O14910): below the threshold
pKd (Inadl_4, Q8NI35): below the threshold
pKd (SCRIB_2, Q14160): 3.67
pKd (DLG4_2, P78352): 3.7
pKd (GIPC2, Q8TF65): below the threshold
pKd (MAGI1_2, Q96QZ7): 3.81
pKd (GRIP2_6, Q9C0E4): 3.98
pKd (GRIP1_7, Q9Y3R0): below the threshold
pKd (GRIP2_3, Q9C0E4): below the threshold
pKd (MAGI2_3, Q86UL8): below the threshold
pKd (GRASP, Q7Z6J2): 4.77
pKd (GRID2IP_1, A4D2P6): below the threshold
pKd (MAST2, Q6P0Q8): 5.57
pKd (MAGI2_5, Q86UL8): 3.84
pKd (MPP7, Q5T2T1): below the threshold
pKd (HTRA1, Q92743): 3.89
pKd (PDZRN3_1, Q9UPQ7): 4.27
pKd (AHNAK1, Q09666): below the threshold
pKd (ARHGEF11, O15085): 4.75
pKd (PTPN13_1, Q12923): below the threshold
pKd (GRIP1_5, Q9Y3R0): below the threshold
pKd (SYNJ2BP, P57105): 4.59

PSDSVGKDVF [EGLN1, Q9GZT9]
pKd (NHERF4_2, Q86UT5): below the threshold
pKd (FRMPD2_1, Q68DX3): below the threshold
pKd (PCLO, Q9Y6V0): below the threshold
pKd (MAGI1_1, Q96QZ7): below the threshold
pKd (MPP6, Q9NZW5): below the threshold
pKd (LIN7A, O14910): below the threshold
pKd (Inadl_4, Q8NI35): below the threshold
pKd (SCRIB_2, Q14160): below the threshold
pKd (DLG4_2, P78352): below the threshold
pKd (GIPC2, Q8TF65): below the threshold
pKd (MAGI1_2, Q96QZ7): below the threshold
pKd (GRIP2_6, Q9C0E4): below the threshold
pKd (GRIP1_7, Q9Y3R0): below the threshold
pKd (GRIP2_3, Q9C0E4): below the threshold
pKd (MAGI2_3, Q86UL8): below the threshold
pKd (GRASP, Q7Z6J2): 3.7
pKd (GRID2IP_1, A4D2P6): below the threshold
pKd (MAST2, Q6P0Q8): below the threshold
pKd (MAGI2_5, Q86UL8): below the threshold
pKd (MPP7, Q5T2T1): below the threshold
pKd (HTRA1, Q92743): 3.77
pKd (PDZRN3_1, Q9UPQ7): below the threshold
pKd (AHNAK1, Q09666): below the threshold
pKd (ARHGEF11, O15085): below the threshold
pKd (PTPN13_1, Q12923): below the threshold
pKd (GRIP1_5, Q9Y3R0): below the threshold
pKd (SYNJ2BP, P57105): below the threshold

QKNKDREYYV [NRXN3, Q9HDB5]
pKd (NHERF4_2, Q86UT5): below the threshold
pKd (FRMPD2_1, Q68DX3): 3.7
pKd (PCLO, Q9Y6V0): below the threshold
pKd (MAGI1_1, Q96QZ7): below the threshold
pKd (MPP6, Q9NZW5): 4.25
pKd (LIN7A, O14910): below the threshold
pKd (Inadl_4, Q8NI35): below the threshold
pKd (SCRIB_2, Q14160): below the threshold
pKd (DLG4_2, P78352): 3.67
pKd (GIPC2, Q8TF65): 3.52
pKd (MAGI1_2, Q96QZ7): below the threshold
pKd (GRIP2_6, Q9C0E4): 4.27
pKd (GRIP1_7, Q9Y3R0): 4.62
pKd (GRIP2_3, Q9C0E4): below the threshold
pKd (MAGI2_3, Q86UL8): below the threshold
pKd (GRASP, Q7Z6J2): below the threshold
pKd (GRID2IP_1, A4D2P6): below the threshold
pKd (MAST2, Q6P0Q8): 3.77
pKd (MAGI2_5, Q86UL8): below the threshold
pKd (MPP7, Q5T2T1): 4.92
pKd (HTRA1, Q92743): 5.49
pKd (PDZRN3_1, Q9UPQ7): below the threshold
pKd (AHNAK1, Q09666): below the threshold
pKd (ARHGEF11, O15085): 4.2
pKd (PTPN13_1, Q12923): below the threshold
pKd (GRIP1_5, Q9Y3R0): below the threshold
pKd (SYNJ2BP, P57105): below the threshold
